Laboratory results: patent US20250051460A1 (Boehringer Ingelheim, published 2025)
Values joined by “and” are separate entries in the source; they are usually repeats but may differ in a detail not shown here. Equal entries are not always repeated. Where two headings read alike, the source gives them in different places.

B1: TPP-14938 (bispecific antibody, human IgG1, kappa, L234A L235A)
heavy: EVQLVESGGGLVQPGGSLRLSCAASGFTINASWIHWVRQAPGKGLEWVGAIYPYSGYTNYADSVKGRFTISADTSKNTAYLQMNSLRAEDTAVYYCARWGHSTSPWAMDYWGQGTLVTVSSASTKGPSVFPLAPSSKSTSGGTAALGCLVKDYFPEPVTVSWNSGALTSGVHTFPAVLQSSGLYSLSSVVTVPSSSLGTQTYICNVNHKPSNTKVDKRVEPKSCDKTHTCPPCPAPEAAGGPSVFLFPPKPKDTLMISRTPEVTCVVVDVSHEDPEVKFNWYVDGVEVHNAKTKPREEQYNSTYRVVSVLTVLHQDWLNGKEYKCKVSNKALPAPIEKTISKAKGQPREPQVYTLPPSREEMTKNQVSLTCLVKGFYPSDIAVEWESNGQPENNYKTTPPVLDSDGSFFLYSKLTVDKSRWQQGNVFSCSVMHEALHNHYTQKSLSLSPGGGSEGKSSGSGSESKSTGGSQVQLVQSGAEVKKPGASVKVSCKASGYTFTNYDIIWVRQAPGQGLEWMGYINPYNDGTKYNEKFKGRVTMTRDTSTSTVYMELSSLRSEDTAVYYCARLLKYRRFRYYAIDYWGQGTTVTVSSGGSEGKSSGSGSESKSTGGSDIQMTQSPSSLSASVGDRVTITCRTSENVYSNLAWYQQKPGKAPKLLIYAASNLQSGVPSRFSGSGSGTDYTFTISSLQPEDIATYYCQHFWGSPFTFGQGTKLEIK
light: DIQMTQSPSSLSASVGDRVTITCRASQVIRRSLAWYQQKPGKAPKLLIYAASNLASGVPSRFSGSGSGTDFTLTISSLQPEDFATYYCQQSNTSPLTFGQGTKVEIKRTVAAPSVFIFPPSDEQLKSGTASVVCLLNNFYPREAKVQWKVDNALQSGNSQESVTEQDSKDSTYSLSSTLTLSKADYEKHKVYACEVTHQGLSSPVTKSFNRGEC
B2: TPP-14939 (bispecific antibody, human IgG1, kappa, L234A L235A)
heavy: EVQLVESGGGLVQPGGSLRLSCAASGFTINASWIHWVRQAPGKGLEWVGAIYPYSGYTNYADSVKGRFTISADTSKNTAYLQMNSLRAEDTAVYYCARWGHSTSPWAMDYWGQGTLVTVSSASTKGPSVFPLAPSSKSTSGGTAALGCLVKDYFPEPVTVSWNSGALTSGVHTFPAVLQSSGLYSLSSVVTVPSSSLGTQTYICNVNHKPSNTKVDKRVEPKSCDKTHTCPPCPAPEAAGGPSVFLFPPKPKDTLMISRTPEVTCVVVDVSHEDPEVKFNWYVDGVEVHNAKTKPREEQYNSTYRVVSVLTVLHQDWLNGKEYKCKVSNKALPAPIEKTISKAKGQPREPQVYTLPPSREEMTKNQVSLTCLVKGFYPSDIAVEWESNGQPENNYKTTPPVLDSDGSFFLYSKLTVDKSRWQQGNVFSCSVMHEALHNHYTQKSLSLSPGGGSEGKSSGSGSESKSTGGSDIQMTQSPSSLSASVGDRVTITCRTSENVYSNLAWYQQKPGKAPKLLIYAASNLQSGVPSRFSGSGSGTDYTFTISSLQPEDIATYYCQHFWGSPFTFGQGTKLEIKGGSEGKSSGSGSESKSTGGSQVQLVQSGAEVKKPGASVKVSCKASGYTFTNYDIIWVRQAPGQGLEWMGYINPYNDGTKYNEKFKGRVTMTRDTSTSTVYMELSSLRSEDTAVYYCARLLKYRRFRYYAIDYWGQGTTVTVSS
light: DIQMTQSPSSLSASVGDRVTITCRASQVIRRSLAWYQQKPGKAPKLLIYAASNLASGVPSRFSGSGSGTDFTLTISSLQPEDFATYYCQQSNTSPLTFGQGTKVEIKRTVAAPSVFIFPPSDEQLKSGTASVVCLLNNFYPREAKVQWKVDNALQSGNSQESVTEQDSKDSTYSLSSTLTLSKADYEKHKVYACEVTHQGLSSPVTKSFNRGEC
B3: TPP-14937 (bispecific antibody, human IgG1, kappa, L234A L235A)
heavy: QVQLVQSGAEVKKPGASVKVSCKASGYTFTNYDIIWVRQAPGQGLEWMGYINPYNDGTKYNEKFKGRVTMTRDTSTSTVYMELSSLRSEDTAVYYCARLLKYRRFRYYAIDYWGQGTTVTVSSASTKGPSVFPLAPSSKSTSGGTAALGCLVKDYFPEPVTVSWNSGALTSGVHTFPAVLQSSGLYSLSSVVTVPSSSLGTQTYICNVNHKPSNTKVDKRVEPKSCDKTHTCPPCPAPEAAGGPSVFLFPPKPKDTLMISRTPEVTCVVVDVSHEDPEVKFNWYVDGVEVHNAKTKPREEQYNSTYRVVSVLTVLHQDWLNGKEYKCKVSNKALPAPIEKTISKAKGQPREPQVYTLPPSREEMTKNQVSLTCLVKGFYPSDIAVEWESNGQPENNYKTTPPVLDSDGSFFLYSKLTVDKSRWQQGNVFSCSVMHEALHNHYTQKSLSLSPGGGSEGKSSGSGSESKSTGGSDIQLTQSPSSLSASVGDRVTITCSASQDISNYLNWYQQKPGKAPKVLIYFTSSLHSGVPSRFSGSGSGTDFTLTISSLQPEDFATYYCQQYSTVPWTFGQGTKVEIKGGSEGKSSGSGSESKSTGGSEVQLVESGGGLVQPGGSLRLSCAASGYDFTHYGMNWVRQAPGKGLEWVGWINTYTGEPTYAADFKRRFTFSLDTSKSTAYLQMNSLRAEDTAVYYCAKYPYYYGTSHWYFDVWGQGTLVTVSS
light: DIQMTQSPSSLSASVGDRVTITCRTSENVYSNLAWYQQKPGKAPKLLIYAASNLQSGVPSRFSGSGSGTDYTFTISSLQPEDIATYYCQHFWGSPFTFGQGTKLEIKRTVAAPSVFIFPPSDEQLKSGTASVVCLLNNFYPREAKVQWKVDNALQSGNSQESVTEQDSKDSTYSLSSTLTLSKADYEKHKVYACEVTHQGLSSPVTKSFNRGEC
B4: TPP-11736 (bispecific antibody, human IgG1, kappa, L234A L235A)
heavy: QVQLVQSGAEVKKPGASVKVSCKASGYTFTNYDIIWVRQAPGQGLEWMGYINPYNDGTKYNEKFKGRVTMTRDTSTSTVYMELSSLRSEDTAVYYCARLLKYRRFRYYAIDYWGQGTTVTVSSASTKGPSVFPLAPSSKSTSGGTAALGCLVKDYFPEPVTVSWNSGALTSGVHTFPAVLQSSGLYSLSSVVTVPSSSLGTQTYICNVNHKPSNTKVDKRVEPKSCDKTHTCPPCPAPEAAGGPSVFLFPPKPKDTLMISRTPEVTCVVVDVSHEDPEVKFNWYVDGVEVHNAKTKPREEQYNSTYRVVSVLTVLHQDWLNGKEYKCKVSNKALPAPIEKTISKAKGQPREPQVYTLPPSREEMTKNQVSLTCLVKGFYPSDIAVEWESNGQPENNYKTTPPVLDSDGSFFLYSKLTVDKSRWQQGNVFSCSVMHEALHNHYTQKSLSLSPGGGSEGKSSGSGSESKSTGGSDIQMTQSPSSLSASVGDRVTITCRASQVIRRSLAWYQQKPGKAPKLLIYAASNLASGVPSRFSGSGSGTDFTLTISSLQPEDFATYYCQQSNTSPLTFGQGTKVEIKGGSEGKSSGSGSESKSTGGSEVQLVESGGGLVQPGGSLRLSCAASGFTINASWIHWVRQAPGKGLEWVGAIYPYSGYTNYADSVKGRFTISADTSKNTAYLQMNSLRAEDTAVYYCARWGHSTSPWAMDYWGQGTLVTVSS
light: DIQMTQSPSSLSASVGDRVTITCRTSENVYSNLAWYQQKPGKAPKLLIYAASNLQSGVPSRFSGSGSGTDYTFTISSLQPEDIATYYCQHFWGSPFTFGQGTKLEIKRTVAAPSVFIFPPSDEQLKSGTASVVCLLNNFYPREAKVQWKVDNALQSGNSQESVTEQDSKDSTYSLSSTLTLSKADYEKHKVYACEVTHQGLSSPVTKSFNRGEC
B5: TPP-11738 (bispecific antibody, human IgG1, kappa, L234A L235A)
heavy: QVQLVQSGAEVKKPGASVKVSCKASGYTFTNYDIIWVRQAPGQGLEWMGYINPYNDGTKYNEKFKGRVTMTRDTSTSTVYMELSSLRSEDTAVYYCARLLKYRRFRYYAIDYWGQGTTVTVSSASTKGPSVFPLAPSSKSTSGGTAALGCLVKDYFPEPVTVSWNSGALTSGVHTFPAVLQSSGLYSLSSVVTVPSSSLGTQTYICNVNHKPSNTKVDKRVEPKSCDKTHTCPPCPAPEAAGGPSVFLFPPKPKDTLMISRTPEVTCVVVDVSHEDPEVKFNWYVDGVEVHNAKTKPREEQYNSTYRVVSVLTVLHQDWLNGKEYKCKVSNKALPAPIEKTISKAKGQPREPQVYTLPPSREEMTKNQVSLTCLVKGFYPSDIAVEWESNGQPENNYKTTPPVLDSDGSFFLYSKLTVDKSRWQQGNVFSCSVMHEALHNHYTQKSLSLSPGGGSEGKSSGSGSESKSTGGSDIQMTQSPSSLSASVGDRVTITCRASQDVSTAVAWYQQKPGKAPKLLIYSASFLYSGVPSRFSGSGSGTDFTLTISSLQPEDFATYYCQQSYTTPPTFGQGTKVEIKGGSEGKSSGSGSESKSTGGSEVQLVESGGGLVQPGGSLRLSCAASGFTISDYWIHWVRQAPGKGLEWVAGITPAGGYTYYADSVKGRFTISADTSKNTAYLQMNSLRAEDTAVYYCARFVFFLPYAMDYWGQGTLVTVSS
light: DIQMTQSPSSLSASVGDRVTITCRTSENVYSNLAWYQQKPGKAPKLLIYAASNLQSGVPSRFSGSGSGTDYTFTISSLQPEDIATYYCQHFWGSPFTFGQGTKLEIKRTVAAPSVFIFPPSDEQLKSGTASVVCLLNNFYPREAKVQWKVDNALQSGNSQESVTEQDSKDSTYSLSSTLTLSKADYEKHKVYACEVTHQGLSSPVTKSFNRGEC
B6: TPP-14936 (bispecific antibody, human IgG1, kappa, L234A L235A)
heavy: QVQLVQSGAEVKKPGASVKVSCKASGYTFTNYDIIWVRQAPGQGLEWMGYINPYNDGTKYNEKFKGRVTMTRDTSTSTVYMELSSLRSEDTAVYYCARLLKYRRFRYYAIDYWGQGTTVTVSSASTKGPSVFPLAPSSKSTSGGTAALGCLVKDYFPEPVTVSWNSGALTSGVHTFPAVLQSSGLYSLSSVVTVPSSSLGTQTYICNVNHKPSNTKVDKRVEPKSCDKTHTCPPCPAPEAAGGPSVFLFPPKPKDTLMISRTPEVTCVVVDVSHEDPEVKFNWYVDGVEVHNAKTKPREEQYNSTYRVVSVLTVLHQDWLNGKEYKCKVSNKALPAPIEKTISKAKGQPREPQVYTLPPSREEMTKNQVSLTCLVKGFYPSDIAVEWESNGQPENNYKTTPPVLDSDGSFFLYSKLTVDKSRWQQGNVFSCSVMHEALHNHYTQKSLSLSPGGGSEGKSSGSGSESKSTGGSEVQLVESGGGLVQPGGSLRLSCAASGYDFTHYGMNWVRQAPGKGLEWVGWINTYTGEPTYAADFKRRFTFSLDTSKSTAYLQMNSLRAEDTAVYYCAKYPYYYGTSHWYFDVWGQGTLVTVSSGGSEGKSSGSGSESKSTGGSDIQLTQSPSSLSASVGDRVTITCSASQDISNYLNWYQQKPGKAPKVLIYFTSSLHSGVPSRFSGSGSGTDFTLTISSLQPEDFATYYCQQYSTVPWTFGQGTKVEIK
light: DIQMTQSPSSLSASVGDRVTITCRTSENVYSNLAWYQQKPGKAPKLLIYAASNLQSGVPSRFSGSGSGTDYTFTISSLQPEDIATYYCQHFWGSPFTFGQGTKLEIKRTVAAPSVFIFPPSDEQLKSGTASVVCLLNNFYPREAKVQWKVDNALQSGNSQESVTEQDSKDSTYSLSSTLTLSKADYEKHKVYACEVTHQGLSSPVTKSFNRGEC

Tests used:
Test in all cases: cell-based or functional assay
human VEGF-A [1] = target: T1, human VEGF-A (human, UniProt P15692-4 27-191)
T1 sequence (P15692 other isoform, or with tags, fused parts or gaps limits assumed): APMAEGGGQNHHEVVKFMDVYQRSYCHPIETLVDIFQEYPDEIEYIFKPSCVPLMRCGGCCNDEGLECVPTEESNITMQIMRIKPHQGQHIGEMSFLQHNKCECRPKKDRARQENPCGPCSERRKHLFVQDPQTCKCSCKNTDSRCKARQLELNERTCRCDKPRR

human VEGF-A [2] = target: T1, human VEGF-A; remark: listed apart in the source
human VEGF-A [3] = target: T1, human VEGF-A; remark: listed apart in the source
human VEGF-A [4] = target: T1, human VEGF-A; remark: listed apart in the source
human VEGF-A [5] = target: T1, human VEGF-A; remark: listed apart in the source
human VEGF-A [6] = target: T1, human VEGF-A; remark: listed apart in the source

Row | Binder | Bottom plateau (ERK1/2 phosphorylation, counts) (human VEGF-A [1]) | Bottom plateau (Src phosphorylation, counts) (human VEGF-A [1]) | IC50 (ERK1/2 phosphorylation) (human VEGF-A [1]) | IC50 (Src phosphorylation) (human VEGF-A [1]) | Bottom plateau (ERK1/2 phosphorylation, counts) (human VEGF-A [2]) | Bottom plateau (Src phosphorylation, counts) (human VEGF-A [2]) | IC50 (ERK1/2 phosphorylation) (human VEGF-A [2]) | IC50 (Src phosphorylation) (human VEGF-A [2]) | Bottom plateau (ERK1/2 phosphorylation, counts) (human VEGF-A [3]) | Bottom plateau (Src phosphorylation, counts) (human VEGF-A [3]) | IC50 (ERK1/2 phosphorylation) (human VEGF-A [3]) | IC50 (Src phosphorylation) (human VEGF-A [3]) | concentration for full inhibition of VEGF-induced HRMEC proliferation (human VEGF-A [4]) | Bottom plateau (ERK1/2 phosphorylation, counts) (human VEGF-A [5]) | Bottom plateau (Src phosphorylation, counts) (human VEGF-A [5]) | IC50 (ERK1/2 phosphorylation) (human VEGF-A [5]) | IC50 (Src phosphorylation) (human VEGF-A [5]) | IC50 (ERK1/2 phosphorylation) (human VEGF-A [4]) | other results
1 | B1 | 1330 counts | 5480 counts | 2.71 nM | 1.8 nM | 1330 counts | 5480 counts | 2.71 nM | 1.8 nM | – | – | – | – | – | – | – | – | – | – | –
2 | B2 | 1140 counts | 5540 counts | 2.51 nM | 1.16 nM | 1140 counts | 5540 counts | 2.51 nM | 1.16 nM | – | – | – | – | – | – | – | – | – | – | –
3 | B3 | – | – | – | – | – | – | – | – | -927 counts | 4570 counts | 5.6 nM | 5.8 nM | 4 nM | -926 counts | 4570 counts | 5.58 nM | 5.83 nM | – | –
4 | B4 | 3690 counts | 6300 counts | 5.59 nM | 3.97 nM | 3690 counts | 6300 counts | 5.59 nM | 3.97 nM | 3690 counts | 6300 counts | 5.6 nM | 4 nM | – | 3690 counts | 6300 counts | 5.59 nM | 3.97 nM | ~4 nM and ~10 nM | IC50 (ERK1/2 phosphorylation) (human VEGF-A [6]): 9.1 nM; IC50 (p38 MAPK phosphorylation) (human VEGF-A [6]): 7.7 nM; IC50 (p38 MAPK phosphorylation) (human VEGF-A [4]): ~7.4 nM
5 | B5 | – | – | – | – | – | – | – | – | – | – | – | – | – | – | – | – | – | ~4 nM and ~10 nM | –
6 | B6 | – | – | – | – | – | – | – | – | -341 counts | 4650 counts | 3.5 nM | 3.4 nM | 1 nM | -340 counts | 4650 counts | 3.49 nM | 3.4 nM | – | –
